Results taken from article PMC7263589, “Integration of phage and yeast display platforms: A reliable and cost effective approach for binning of peptides as displayed on-phage” (PLoS ONE, 2020).
Bridge positions count the residues as written; N and C are the ends. Peptide text beside a SMILES is read from it.

T1: IL-23 (Homo sapiens, UniProt P29460+Q9NPF7)
T1 construct: made in house
T1 sequence (Q9NPF7 20-189): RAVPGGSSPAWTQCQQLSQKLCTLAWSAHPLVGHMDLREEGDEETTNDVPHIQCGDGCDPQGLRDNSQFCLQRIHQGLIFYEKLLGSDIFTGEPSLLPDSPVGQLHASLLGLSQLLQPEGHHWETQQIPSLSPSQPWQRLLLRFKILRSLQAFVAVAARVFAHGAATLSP
T1 sequence (P29460 23-328): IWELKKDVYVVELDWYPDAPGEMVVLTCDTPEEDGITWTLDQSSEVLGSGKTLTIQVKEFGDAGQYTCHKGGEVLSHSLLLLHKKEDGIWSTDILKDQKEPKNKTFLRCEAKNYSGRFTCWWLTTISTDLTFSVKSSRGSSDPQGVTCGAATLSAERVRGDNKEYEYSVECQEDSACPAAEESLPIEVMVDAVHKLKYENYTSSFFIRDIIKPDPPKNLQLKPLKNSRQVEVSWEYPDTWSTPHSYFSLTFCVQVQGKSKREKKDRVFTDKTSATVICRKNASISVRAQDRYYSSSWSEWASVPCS

T2: IL-23-AVI (human, UniProt Q9NPF7 20-189; P29460 23-328)
T2 construct: IL-23 p19 subunit, human; IL-12/IL-23 p40 subunit, human; Captured on streptavidin chips and beads, so biotinylation of the Avi tag is implied; also called Avi-tagged IL-23; recombinant IL-23
T2 sequence (looked up) 1: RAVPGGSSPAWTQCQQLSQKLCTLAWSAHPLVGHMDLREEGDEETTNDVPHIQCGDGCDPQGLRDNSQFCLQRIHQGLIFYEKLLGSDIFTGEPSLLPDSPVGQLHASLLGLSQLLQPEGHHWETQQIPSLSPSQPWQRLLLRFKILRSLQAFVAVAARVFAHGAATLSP
T2 sequence (looked up) 2: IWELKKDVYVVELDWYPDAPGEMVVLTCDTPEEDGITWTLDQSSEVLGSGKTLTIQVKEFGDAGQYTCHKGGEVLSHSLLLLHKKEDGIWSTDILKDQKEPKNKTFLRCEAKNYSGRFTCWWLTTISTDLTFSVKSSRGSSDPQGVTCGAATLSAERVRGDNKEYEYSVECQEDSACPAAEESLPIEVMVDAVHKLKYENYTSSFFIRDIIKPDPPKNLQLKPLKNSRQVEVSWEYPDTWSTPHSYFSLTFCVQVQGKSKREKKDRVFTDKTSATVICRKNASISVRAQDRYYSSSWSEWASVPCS

T3: Fluorescently labeled IL-23R, Q5VWK5
T3 chain: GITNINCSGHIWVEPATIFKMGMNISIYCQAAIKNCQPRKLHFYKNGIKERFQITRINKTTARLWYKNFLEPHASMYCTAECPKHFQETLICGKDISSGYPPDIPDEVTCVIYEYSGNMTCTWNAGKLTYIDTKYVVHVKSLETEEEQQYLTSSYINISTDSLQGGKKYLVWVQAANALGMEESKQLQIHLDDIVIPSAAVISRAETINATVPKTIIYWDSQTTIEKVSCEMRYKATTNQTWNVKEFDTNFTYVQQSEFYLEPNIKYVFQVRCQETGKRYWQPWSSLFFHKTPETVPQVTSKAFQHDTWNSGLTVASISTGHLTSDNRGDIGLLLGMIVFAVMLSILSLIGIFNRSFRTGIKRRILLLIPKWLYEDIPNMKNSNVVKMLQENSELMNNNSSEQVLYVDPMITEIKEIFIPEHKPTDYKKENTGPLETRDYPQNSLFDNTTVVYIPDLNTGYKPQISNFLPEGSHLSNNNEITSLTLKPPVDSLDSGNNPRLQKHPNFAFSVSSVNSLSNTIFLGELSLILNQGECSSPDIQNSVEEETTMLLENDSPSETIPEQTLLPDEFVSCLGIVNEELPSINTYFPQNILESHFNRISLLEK


Columns and labels:
IL-23 = biological target: T1, IL-23; assay: SPR direct binding to captured IL-23-AVI (Biacore T200); conditions: IL-23-AVI captured on streptavidin chip, 25°C, 50 μl/min, 10 mM HEPES pH 7.5, 150 mM NaCl, 0.005% P20, 3% DMSO, 1:1 binding model, multi-cycle (single cycle kinetics for 23–652 and IL-23R), n = 1, 23–447 an estimate, read-out: ka
Method: SPR (Biacore T200, GE Healthcare) was used to determine binding constants of the peptides against IL-23 and their competitiveness to IL-23R. All SPR experiments were performed at 25°C with flow rate of 50 μl/min. Assay buffer used in direct binding experiment was 10 mM HEPES pH 7.5, 150 mM NaCl, 0.005% P20, and 3% DMSO. Assay buffer used in competition experiment was 10 mM HEPES pH 7.5, 150 mM NaCl, 0.005% P20, and 1% BSA. All peptides were reconstituted first in DMSO as 10 mM stocks and then diluted into assay buffer. The proteins used in direct binding and competition SPR are described in S1 Table in S1 File. For direct binding of peptides against IL-23, 2000–9000 RU of IL-23-AVI was captured to streptavidin sensor chips (GE Healthcare, Series S Sensor Chip SA, BR-1005-31). Dilution series with 3-fold increment were prepared for each peptide. Initially, all peptides were tested up to 30 μM. Concentration range for some were then lowered accordingly based on affinity or nuisance behavior at high concentrations. SPR “multi-cycle” type was used for peptides 23–644, 23–437, 23–441, 23–446, and 23–447. Each cycle consisted of 30s of analyte injection and then 60s of buffer flow to monitor dissociation. “Single cycle kinetics” (SCK) type was used for 23–652 due to their long dissociation half-lives. Each SCK cycle consisted of five 60s injections of sample in increasing concentration with a final 600s of dissociation. To study IL-23 and IL-23R interaction, 200–1000 RU of IL-23-AVI and IL-23R-Fc-AVI were captured to streptavidin sensor chip. Dilution series with 3-fold increment of IL-23R-FLAG-HIS and IL-23-HIS were run in SCK cycle type as described above except the final dissociation time were 60-300s. Sensorgrams from the entire titration series for each sample were fitted globally to extract binding kinetics and affinity using Biacore T200 Evaluation Software 2.0 (GE Healthcare) according to a 1:1 binding model. To identify IL-23 binders that can block receptor binding, a competition SPR was established. In each SPR cycle, fresh IL-23R was capture (<1000 RU) by injecting 10 μg/ml of IL-23R-Fc-AVI to a Protein-A flow cell at 10 μl/min flow rate for 30s. Analyte consisted of a mixture of 20 nM of IL-23 protein and a single concentration of peptide was then injected for 30s at 50 μl/min to observe IL-23 binding. Finally, the Protein-A surface was regenerated by 10 mM Glycine pH 1.5 for 30s at 30 μl/min. IL-23 at 20 nM without peptide, “IL-23 only”, was used as control to quantify IL-23 binding without blockage; while “cold” IL-23R was used as a positive control for blockage.

[1] = biological target: FGL-containing peptide phage (FGL Phage); assay: flow cytometry on yeast-displayed IL-23, phage detected with anti-M13-AF647; conditions: n = 2; parent: est. 24; read off a plot
IL-23-AVI [2] = biological target: T2, IL-23-AVI; assay: AlphaScreen or HTRF; AlphaLISA; IL-23-AVI (1.5 nM) pre-incubated with peptide 30 min, then FLAG-tagged IL-23R (3 nM); streptavidin donor and anti-FLAG acceptor beads; 25 mM HEPES pH 7.4, 150 mM NaCl, 0.02% Tween 20, 0.1% BSA; room temperature; n = 1; conditions: both partners purified
IL-23-AVI [3] = biological target: T2, IL-23-AVI; assay: AlphaScreen or HTRF; TR-FRET; compounds pre-incubated with IL-23R-FLAG 1 h, then IL-23-AVI; Europium-streptavidin and anti-FLAG-allophycocyanin; 25 mM HEPES, 150 mM NaCl, 0.02% Tween 20, 0.1% BSA, pH 7.4, 1% DMSO; n = 1; conditions: both partners purified
IL-23-AVI [4] = biological target: T2, IL-23-AVI; assay: SPR; Biacore T200, 25°C, 50 μl/min; 2000–9000 RU of IL-23-AVI captured to streptavidin chip, peptides as analyte (3-fold series, up to 30 μM); 10 mM HEPES pH 7.5, 150 mM NaCl, 0.005% P20, 3% DMSO; multi-cycle, single cycle kinetics for 23–652; 1:1 model; n = 1; conditions: both partners purified
[5] = biological target: T3, Fluorescently labeled IL-23R, Q5VWK5; assay: flow cytometry on yeast-displayed IL-23; conditions: chain shown with the change; n = 1; parent: est. 1.05; read off a plot

Chain of wild-type IL-23 displayed on yeast (P29460 whole entry, looked up): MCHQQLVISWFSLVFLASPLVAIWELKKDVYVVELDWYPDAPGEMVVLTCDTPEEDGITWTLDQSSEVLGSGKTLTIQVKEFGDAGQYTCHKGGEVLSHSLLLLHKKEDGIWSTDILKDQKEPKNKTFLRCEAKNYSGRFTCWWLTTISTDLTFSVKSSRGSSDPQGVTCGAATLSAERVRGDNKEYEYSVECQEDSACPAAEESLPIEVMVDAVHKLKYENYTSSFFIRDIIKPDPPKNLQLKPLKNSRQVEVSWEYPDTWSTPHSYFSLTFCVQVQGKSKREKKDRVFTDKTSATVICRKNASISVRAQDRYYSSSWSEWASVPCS
Chain of wild-type IL-23 displayed on yeast (Q9NPF7 whole entry, looked up): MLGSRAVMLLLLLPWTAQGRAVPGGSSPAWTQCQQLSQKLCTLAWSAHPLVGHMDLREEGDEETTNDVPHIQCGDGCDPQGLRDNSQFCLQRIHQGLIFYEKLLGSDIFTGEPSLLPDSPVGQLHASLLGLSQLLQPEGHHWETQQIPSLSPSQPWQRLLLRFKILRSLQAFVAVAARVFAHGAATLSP

Molecule | Kd (IL-23-AVI [4]) | koff (IL-23-AVI [4]) | kon (IL-23-AVI [4]) | other results
CC(C)C[C@@H]1NC(=O)CNC(=O)[C@H](Cc2ccccc2)NC(=O)[C@H](Cc2c[nH]c3ccccc23)NC(=O)[C@@H](NC(=O)[C@@H]2CCCN2C(=O)[C@H](CC(=O)O)NC(=O)[C@@H]2CCCN2C(=O)[C@@H](NC(=O)[C@@H](N)Cc2c[nH]cn2)C(C)C)CSSC[C@@H](C(=O)N[C@@H](CC(=O)O)C(=O)N[C@H](C(=O)N[C@@H](CC(C)C)C(=O)N[C@@H](CC(N)=O)C(=O)N[C@@H](CO)C(=O)O)C(C)C)NC(=O)[C@H](CC(C)C)NC1=O [23–644] (H-HVPDPCWFGLLCDVLNS-OH; disulfide 6-12) | – | – | – | kon (IL-23): 49300 M⁻¹ s⁻¹
wild-type IL-23 displayed on yeast (from UniProt Q9NPF7;P29460) W137A | – | – | – | response [1]: 23
GLRERCVRNYGHEFCQNWYW (selected from a peptide phage library against IL-23; Two cysteines; source: synthetic peptide (CPC Scientific)) [peptide 23–446 (free, chemically synthesized)] | 22.3 nM | 0.0863 s⁻¹ | 3.88e+06 M⁻¹ s⁻¹ | IC50 (IL-23-AVI [2]): 240 nM; IC50 (IL-23-AVI [3]): 590 nM
DTLTKSFCYFGTWCQMYGST (selected from a peptide phage library against IL-23; Two cysteines; also called FGLT-containing peptide; FGL-containing peptide; source: synthetic peptide (CPC Scientific)) [peptide 23–652 (free, chemically synthesized)] | 71.8 nM | 0.00263 s⁻¹ | 36600 M⁻¹ s⁻¹ | –
wild-type IL-23 displayed on yeast, Q9NPF7;P29460 K145A (protein) chain 1: RAVPGGSSPAWTQCQQLSQKLCTLAWSAHPLVGHMDLREEGDEETTNDVPHIQCGDGCDPQGLRDNSQFCLQRIHQGLIFYEKLLGSDIFTGEPSLLPDSPVGQLHASLLGLSQLLQPEGHHWETQQIPSLSPSQPWQRLLLRFAILRSLQAFVAVAARVFAHGAATLSP chain 2: IWELKKDVYVVELDWYPDAPGEMVVLTCDTPEEDGITWTLDQSSEVLGSGKTLTIQVKEFGDAGQYTCHKGGEVLSHSLLLLHKKEDGIWSTDILKDQKEPKNKTFLRCEAKNYSGRFTCWWLTTISTDLTFSVKSSRGSSDPQGVTCGAATLSAERVRGDNKEYEYSVECQEDSACPAAEESLPIEVMVDAVHKLKYENYTSSFFIRDIIKPDPPKNLQLKPLKNSRQVEVSWEYPDTWSTPHSYFSLTFCVQVQGKSKREKKDRVFTDKTSATVICRKNASISVRAQDRYYSSSWSEWASVPCS | – | – | – | ratio to parent [5]: 0.18
HVPDPCWFGLLCDVLNS (selected from a peptide phage library against IL-23; Two cysteines; also called FGL-containing peptide; source: synthetic peptide (CPC Scientific)) [peptide 23–644 (free, chemically synthesized)] | 2620 nM | 0.129 s⁻¹ | 49300 M⁻¹ s⁻¹ | –
